Results from the supplement of paper PMC10065799, “High-throughput profiling of sequence recognition by tyrosine kinases and SH2 domains using bacterial peptide display” (eLife, 2023).

Assays:
[1] = tested on: c-Src; assay: phosphorylation enrichment, bacterial display (enrichment ratio); higher = better substrate or ligand; peptides without Tyr show the background
[2] = tested on: AncSZ; assay: as above
[3] = molecular target: MERTK (UniProt Q12866); assay: as above
[4] = molecular target: FGFR3 (UniProt P22607); assay: as above
[5] = molecular target: Hck (UniProt P08631); assay: as above
Sequence of Hck (P08631 whole entry, looked up): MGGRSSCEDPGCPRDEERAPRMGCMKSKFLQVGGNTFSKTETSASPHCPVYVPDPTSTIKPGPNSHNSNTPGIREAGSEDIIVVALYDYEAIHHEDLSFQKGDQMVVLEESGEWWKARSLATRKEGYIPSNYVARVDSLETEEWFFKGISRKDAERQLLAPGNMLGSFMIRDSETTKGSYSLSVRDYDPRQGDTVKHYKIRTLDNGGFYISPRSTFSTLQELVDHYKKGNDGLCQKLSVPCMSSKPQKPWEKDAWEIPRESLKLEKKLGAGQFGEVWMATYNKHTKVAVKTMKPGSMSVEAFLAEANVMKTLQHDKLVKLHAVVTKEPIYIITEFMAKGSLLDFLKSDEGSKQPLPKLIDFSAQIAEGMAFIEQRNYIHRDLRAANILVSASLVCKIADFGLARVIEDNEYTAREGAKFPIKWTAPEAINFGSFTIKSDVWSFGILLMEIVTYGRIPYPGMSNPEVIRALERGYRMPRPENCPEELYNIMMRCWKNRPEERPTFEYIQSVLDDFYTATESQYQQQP

[6] = molecular target: Fyn (UniProt P06241); assay: as above
Sequence of Fyn (P06241 whole entry, looked up): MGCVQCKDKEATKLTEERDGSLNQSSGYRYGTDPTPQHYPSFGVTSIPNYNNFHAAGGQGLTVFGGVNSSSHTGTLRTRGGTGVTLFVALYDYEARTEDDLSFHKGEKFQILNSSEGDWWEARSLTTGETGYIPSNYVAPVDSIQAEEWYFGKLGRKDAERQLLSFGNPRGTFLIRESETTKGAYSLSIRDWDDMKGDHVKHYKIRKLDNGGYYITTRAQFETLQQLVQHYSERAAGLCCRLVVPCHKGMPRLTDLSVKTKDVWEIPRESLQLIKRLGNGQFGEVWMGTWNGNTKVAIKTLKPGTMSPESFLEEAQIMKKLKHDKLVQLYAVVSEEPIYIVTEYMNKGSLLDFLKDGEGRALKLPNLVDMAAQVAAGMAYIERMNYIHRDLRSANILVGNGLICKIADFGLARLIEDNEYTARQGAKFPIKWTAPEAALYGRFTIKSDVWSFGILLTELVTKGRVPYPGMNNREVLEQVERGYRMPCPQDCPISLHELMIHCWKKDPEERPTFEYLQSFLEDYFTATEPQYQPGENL

[7] = molecular target: Fes (UniProt P07332); assay: as above
Sequence of Fes (P07332 whole entry, looked up): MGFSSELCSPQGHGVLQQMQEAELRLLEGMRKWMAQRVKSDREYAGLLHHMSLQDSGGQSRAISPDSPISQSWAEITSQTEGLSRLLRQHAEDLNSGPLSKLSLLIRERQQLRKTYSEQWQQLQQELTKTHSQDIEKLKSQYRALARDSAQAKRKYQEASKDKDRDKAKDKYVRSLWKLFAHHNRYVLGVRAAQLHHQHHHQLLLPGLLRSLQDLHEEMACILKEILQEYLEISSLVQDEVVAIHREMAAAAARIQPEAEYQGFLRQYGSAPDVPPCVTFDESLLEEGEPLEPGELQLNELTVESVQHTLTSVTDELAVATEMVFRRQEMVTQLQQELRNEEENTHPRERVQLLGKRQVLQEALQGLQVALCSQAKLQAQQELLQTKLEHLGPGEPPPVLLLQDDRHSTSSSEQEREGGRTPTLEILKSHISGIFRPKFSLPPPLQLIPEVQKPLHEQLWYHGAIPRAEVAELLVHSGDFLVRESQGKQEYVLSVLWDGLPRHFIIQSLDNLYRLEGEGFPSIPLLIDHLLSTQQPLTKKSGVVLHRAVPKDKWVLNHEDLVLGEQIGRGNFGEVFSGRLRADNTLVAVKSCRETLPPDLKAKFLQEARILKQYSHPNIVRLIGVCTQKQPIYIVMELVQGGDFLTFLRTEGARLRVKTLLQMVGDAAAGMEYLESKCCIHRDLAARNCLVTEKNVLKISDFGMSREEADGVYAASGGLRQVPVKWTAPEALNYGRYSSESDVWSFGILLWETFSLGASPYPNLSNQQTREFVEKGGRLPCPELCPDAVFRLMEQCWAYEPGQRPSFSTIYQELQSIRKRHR

[8] = molecular target: FGFR1 (UniProt P11362); assay: as above
Sequence of FGFR1 (P11362 whole entry, looked up): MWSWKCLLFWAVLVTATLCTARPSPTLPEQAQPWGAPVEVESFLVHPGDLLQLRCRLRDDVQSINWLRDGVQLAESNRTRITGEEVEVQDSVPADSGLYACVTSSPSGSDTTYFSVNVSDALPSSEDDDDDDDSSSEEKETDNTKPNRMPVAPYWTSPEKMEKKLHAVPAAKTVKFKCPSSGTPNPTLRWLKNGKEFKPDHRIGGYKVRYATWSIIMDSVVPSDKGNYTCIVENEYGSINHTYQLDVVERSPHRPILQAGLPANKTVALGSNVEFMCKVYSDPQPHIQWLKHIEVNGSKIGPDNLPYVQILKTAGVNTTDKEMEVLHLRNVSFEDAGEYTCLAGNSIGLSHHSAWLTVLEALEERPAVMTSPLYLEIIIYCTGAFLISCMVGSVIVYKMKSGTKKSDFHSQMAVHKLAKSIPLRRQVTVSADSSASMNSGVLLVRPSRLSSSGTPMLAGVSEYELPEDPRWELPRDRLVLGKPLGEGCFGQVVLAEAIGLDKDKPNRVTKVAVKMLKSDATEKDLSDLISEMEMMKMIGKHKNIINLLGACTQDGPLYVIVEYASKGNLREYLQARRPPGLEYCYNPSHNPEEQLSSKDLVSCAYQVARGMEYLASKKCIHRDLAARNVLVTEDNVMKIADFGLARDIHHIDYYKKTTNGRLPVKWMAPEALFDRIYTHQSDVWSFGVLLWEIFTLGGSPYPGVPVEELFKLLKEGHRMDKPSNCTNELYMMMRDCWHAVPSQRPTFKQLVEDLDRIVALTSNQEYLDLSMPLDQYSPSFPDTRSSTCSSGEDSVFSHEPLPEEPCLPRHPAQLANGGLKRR

[9] = molecular target: EPHB2 (UniProt P29323); assay: as above
Sequence of EPHB2 (P29323 whole entry, looked up): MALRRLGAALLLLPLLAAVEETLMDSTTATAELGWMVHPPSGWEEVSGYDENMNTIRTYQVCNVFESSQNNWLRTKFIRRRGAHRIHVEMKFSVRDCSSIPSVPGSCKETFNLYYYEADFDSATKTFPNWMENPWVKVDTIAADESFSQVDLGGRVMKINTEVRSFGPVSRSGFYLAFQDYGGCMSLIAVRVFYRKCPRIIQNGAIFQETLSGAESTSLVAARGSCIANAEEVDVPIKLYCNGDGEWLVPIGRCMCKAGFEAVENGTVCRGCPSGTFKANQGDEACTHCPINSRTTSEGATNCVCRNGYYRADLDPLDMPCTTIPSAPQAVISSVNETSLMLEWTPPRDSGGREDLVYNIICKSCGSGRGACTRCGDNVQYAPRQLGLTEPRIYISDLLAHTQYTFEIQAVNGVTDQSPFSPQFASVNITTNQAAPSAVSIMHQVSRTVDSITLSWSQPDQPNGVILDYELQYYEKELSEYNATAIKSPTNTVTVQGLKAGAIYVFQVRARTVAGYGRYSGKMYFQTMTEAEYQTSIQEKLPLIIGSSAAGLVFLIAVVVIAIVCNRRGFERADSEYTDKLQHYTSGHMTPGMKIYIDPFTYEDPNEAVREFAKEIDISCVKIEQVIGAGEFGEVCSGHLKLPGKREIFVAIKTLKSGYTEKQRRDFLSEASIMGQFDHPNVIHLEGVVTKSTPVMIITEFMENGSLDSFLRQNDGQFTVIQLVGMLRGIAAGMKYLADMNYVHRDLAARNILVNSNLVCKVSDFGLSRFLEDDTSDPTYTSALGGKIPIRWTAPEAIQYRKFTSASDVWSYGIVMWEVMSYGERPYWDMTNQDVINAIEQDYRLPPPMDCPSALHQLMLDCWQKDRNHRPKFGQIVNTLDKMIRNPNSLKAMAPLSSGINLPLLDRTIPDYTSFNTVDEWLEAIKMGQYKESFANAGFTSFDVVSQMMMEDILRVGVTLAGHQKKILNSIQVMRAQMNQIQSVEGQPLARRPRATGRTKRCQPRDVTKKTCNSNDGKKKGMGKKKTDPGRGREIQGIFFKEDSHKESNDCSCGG

[10] = molecular target: Jak2 (UniProt O60674); assay: as above
[11] = molecular target: EPHB1 (UniProt P54762); assay: as above
[12] = tested on: Fer (mouse); assay: as above
[13] = tested on: c-Abl (mouse); assay: as above
[14] = molecular target: Grb2 SH2 (UniProt P62993); assay: SH2 binding enrichment of the phosphorylated peptide, bacterial display (enrichment ratio); higher = better substrate or ligand; peptides without Tyr show the background
Sequence of Grb2 SH2 (P62993 whole entry, looked up): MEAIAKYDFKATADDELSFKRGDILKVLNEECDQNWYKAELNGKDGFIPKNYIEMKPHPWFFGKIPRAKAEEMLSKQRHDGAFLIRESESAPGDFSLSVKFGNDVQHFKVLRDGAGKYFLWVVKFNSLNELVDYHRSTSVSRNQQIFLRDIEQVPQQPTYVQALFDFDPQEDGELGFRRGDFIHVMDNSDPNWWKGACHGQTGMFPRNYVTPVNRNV

[15] = molecular target: SHP2-C SH2; assay: as above
[16] = molecular target: c-Src SH2; assay: as above
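For SH2 binding enrichment of the phosphorylated peptide, bacterial display in this document: peptide library displayed on the E. coli surface as eCPX fusions, selected cells deep-sequenced, score is each peptide's frequency after selection divided by its frequency in the input.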
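For phosphorylation enrichment, bacterial display in this document: 11-residue human phosphosite peptides and single-mutation variants displayed on the E. coli surface, counted by deep sequencing, each peptide's frequency after selection divided by its frequency in the unselected input library; frequency after pTyr selection over input frequency; kinase dosed for 20-30% of maximal phosphorylation in three min.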

Sequence of MERTK (Q12866 whole entry, looked up): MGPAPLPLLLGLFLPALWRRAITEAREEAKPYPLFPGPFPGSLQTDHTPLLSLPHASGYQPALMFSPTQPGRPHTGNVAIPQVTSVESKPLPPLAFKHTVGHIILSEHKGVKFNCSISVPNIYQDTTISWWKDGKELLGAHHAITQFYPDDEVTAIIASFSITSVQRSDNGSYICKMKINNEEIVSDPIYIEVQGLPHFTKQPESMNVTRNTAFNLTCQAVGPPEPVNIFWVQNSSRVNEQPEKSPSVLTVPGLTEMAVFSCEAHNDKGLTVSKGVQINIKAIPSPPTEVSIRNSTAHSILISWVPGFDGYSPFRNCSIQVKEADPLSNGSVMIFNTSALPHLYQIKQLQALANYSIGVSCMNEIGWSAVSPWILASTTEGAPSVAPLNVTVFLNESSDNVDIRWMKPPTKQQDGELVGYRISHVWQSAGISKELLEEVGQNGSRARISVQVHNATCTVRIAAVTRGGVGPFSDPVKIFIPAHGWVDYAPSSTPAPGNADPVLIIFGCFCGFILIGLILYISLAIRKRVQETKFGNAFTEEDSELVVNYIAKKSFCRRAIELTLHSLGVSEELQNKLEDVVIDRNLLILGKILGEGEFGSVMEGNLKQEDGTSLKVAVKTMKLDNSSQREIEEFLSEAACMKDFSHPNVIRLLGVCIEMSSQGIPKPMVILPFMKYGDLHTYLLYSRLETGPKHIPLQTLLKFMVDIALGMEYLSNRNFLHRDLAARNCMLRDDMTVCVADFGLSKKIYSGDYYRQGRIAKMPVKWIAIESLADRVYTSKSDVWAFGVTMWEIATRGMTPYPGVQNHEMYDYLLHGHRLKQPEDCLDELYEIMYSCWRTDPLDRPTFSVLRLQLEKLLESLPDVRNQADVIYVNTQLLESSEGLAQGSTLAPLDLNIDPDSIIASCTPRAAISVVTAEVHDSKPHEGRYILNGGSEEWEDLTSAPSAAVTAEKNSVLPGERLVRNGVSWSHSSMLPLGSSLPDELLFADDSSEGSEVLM

Sequence | phosphorylation enrichment [1] | phosphorylation enrichment [2] | phosphorylation enrichment [3] | phosphorylation enrichment [4] | phosphorylation enrichment [5] | phosphorylation enrichment [6] | phosphorylation enrichment [7] | phosphorylation enrichment [8] | phosphorylation enrichment [9] | phosphorylation enrichment [10] | phosphorylation enrichment [11] | phosphorylation enrichment [12] | phosphorylation enrichment [13] | SH2 binding enrichment [14] | SH2 binding enrichment [15] | SH2 binding enrichment [16]
SSREEYFIGGG [GYPC_Y126_K124E] | 0.655 | 1.05 | 0.471 | 1.94 | 0.474 | 0.574 | 0.909 | 0.562 | 0.44 | 0.894 | 0.457 | 0.486 | 0.71 | 0.836 | 0.895 | 0.486
DCLASYLDKVR [KRT10_Y160_R156C] | 0.419 | 0.886 | 0.4 | 0.659 | 0.452 | 0.422 | 0.953 | 0.56 | 0.659 | 0.842 | 0.55 | 0.402 | 0.706 | 0.932 | 0.711 | 0.55
KFLVGYEMLAQ [GALT_Y339_M336L] | 0.378 | 0.701 | 0.323 | 0.661 | 0.416 | 0.386 | 0.977 | 0.408 | 0.434 | 0.747 | 0.434 | 0.395 | 0.578 | 1.01 | 1.06 | 2.72
QRKPSYNQLAS [BRCA2_Y71] | 0.415 | 0.449 | 0.392 | 0.642 | 0.345 | 0.399 | 0.53 | 0.543 | 0.53 | 0.598 | 0.344 | 0.244 | 0.471 | 1.59 | 1.14 | 1.06
ALCHFYKLNII [ETV6_Y402_R399C_YF] | 0.581 | 1.19 | 0.499 | 0.806 | 0.544 | 0.537 | 1.42 | 0.479 | 0.732 | 1.26 | 0.607 | 0.692 | 0.833 | 1.12 | 1.06 | 0.915
RTVPLYESPRK [DDB1_Y718] | 3.79 | 1.31 | 7.82 | 0.577 | 10.5 | 3.13 | 1.77 | 0.374 | 26.6 | 0.833 | 20.7 | 16 | 26 | 0.898 | 1.01 | 0.57
NTGDYYDLYGG [PTPN11_Y63] | 5 | 4.64 | 4.18 | 13.8 | 5.35 | 5.18 | 1.13 | 14.7 | 14.4 | 4.07 | 13 | 1.59 | 1.02 | 1.02 | 0.939 | 0.687
CTTIHYNYMYN [TP53_Y234_C238Y] | 0.543 | 1.12 | 1 | 0.844 | 0.563 | 0.507 | 1.22 | 0.877 | 0.69 | 0.91 | 0.945 | 1.21 | 0.684 | 0.843 | 0.887 | 1.1
WGLRSYYETSK [MAGED2_Y448] | 0.298 | 0.958 | 0.298 | 0.733 | 0.448 | 0.4 | 1.12 | 0.508 | 0.549 | 0.972 | 0.754 | 0.464 | 0.661 | 0.809 | 0.775 | 1.03
KGKLIYLLGDS [NXPE1_Y350] | 0.661 | 0.803 | 0.343 | 0.521 | 0.478 | 0.551 | 0.922 | 0.434 | 0.42 | 0.639 | 0.391 | 0.471 | 0.529 | 1.2 | 1.24 | 1.17
NGEDLYAGSTD [XRCC1_Y515_P514L] | 0.807 | 1.17 | 0.446 | 0.613 | 0.886 | 0.66 | 1.05 | 0.489 | 0.541 | 1.02 | 0.517 | 0.52 | 0.743 | 0.834 | 0.555 | 0.469
LHRHAYPEQRQ [DPPA2_Y127] | 0.449 | 0.619 | 0.487 | 0.577 | 0.704 | 0.502 | 0.967 | 0.505 | 0.594 | 0.53 | 0.434 | 0.532 | 0.789 | 1.14 | 1.11 | 1.19
TTKGSYSLFVR [HCK_Y180_S183Y_YF] | 0.419 | 1 | 0.45 | 0.57 | 0.441 | 0.418 | 1.09 | 0.383 | 0.846 | 0.742 | 0.351 | 0.43 | 0.546 | 1.08 | 0.837 | 0.552
RPSRQYATRDV [SCAMP3_Y35_L38R] | 0.407 | 0.598 | 0.274 | 0.352 | 0.412 | 0.396 | 0.498 | 0.473 | 0.356 | 0.352 | 0.366 | 0.381 | 0.615 | 0.765 | 0.801 | 0.417
DVAKEYGHLLP [HRC_Y99_S96A] | 0.52 | 0.723 | 0.402 | 0.522 | 0.547 | 0.422 | 0.822 | 0.436 | 0.512 | 0.781 | 0.517 | 0.403 | 0.555 | 0.984 | 0.604 | 0.429
FSSLGYPPPEG [ZSWIM4_Y87_YF] | 0.421 | 0.752 | 0.401 | 0.704 | 0.472 | 0.443 | 0.906 | 0.437 | 0.481 | 0.807 | 0.418 | 0.396 | 0.593 | 0.957 | 0.829 | 0.535
EQQNMYRLKVL [ABCC6_Y372] | 0.452 | 0.861 | 0.401 | 0.545 | 0.475 | 0.41 | 0.706 | 0.521 | 0.5 | 0.561 | 0.56 | 0.488 | 0.619 | 0.79 | 0.566 | 0.499
QLHRKYCLSPR [HJURP_Y445_E444K] | 0.636 | 0.677 | 0.491 | 0.581 | 0.533 | 0.545 | 0.852 | 0.815 | 0.728 | 0.527 | 0.523 | 0.603 | 0.679 | 1.09 | 0.859 | 0.961
GIVEDYRPPFY [ACVRL1_Y421] | 0.434 | 0.981 | 0.406 | 0.633 | 0.427 | 0.49 | 0.942 | 0.445 | 0.502 | 0.831 | 0.522 | 0.457 | 0.735 | 0.731 | 0.813 | 0.466
TNYSLYLRSLE [MTM1_Y71_R69S] | 0.42 | 0.952 | 0.602 | 0.659 | 0.601 | 0.423 | 1.15 | 0.456 | 0.671 | 1.29 | 0.722 | 0.555 | 0.574 | 1.01 | 12.1 | 0.669
SVQVEYMKTIL [GLYATL2_Y127_D126E] | 0.376 | 0.643 | 0.429 | 0.578 | 0.469 | 0.413 | 0.893 | 0.437 | 0.476 | 0.612 | 0.41 | 0.425 | 0.484 | 0.712 | 0.777 | 0.72
SAEEDYKADAK [KCNT1_Y876_M877K] | 0.513 | 1.18 | 0.497 | 0.684 | 0.536 | 0.534 | 1.28 | 0.464 | 0.502 | 1.07 | 0.635 | 0.465 | 0.831 | 0.874 | 0.618 | 0.477
KVGNEYVTKGQ [MYH7_Y410] | 0.339 | 0.492 | 0.332 | 0.422 | 0.334 | 0.3 | 0.578 | 0.393 | 0.495 | 0.471 | 0.303 | 0.269 | 0.469 | 0.89 | 0.676 | 0.471
STTIHYNYMCN [TP53_Y234_C229S] | 0.458 | 1 | 0.53 | 0.809 | 0.543 | 0.517 | 1.14 | 0.629 | 0.677 | 0.792 | 0.603 | 0.592 | 0.71 | 0.812 | 0.845 | 1.88
GEHSIYSTVNN [CD55_Y266_C267S] | 7.42 | 0.792 | 7.23 | 0.52 | 10.9 | 10.3 | 1.5 | 0.584 | 13 | 0.536 | 9.99 | 14.5 | 6.92 | 0.651 | 1.59 | 0.718
ERDYTYDELLN [EIF2S2_Y176_E177D] | 0.661 | 1.17 | 0.498 | 0.791 | 1.04 | 0.631 | 1.27 | 0.558 | 0.682 | 1.21 | 0.742 | 0.506 | 0.887 | 0.786 | 0.688 | 1.83
SSYPDYLAAVD [GLB1_Y154_D151Y] | 0.451 | 1.36 | 0.415 | 0.746 | 0.515 | 0.495 | 1.05 | 0.647 | 0.554 | 0.994 | 0.518 | 0.495 | 0.653 | 0.815 | 0.473 | 0.498
QDIMAYRGREV [BCL6_Y157] | 0.531 | 1.1 | 0.599 | 0.717 | 0.448 | 0.632 | 1.04 | 0.565 | 0.553 | 0.937 | 0.52 | 0.616 | 0.536 | 0.769 | 0.729 | 0.447
YETSHYPASPD [CTNND2_Y1217] | 0.489 | 0.858 | 0.42 | 0.626 | 0.421 | 0.434 | 0.771 | 0.454 | 0.512 | 0.7 | 0.382 | 0.484 | 0.528 | 0.739 | 0.723 | 0.76
